According to patent US20220363716A1:

Tests used:
[1] = target: human serum-derived IgG (SIGMA, #14506, Lot #SLBR0560V) (human); experiment: frontal loading of 0.67 mg/ml IgG on a 1-ml Z33 column (912 nmol), 20 mM phosphate pH 7.0
[2] = target: human serum-derived IgG (SIGMA, #14506, Lot #SLBR0560V) (human); experiment: elution at pH 3.5 from the 1-ml Z33 column, A280

IgG-bound peptide Z33 Acetyl-…-NH2, immobilized on a HiTrap NHS-activated HP column
dynamic binding capacity (DBC) [1]: 26 mg | amount of the antibody bound to the column [2]: 19 mg
